According to EP1173480B1 (Neurochem (International) Limited, dated 2008):
Non-standard residues stand in square brackets, D forms with d. No end group written: not given here.

Target: Aβ(1-40), naturally occurring all-[L] isomer (UniProt P05067 672-711)
Test: cell-based or functional assay

Chain of Aβ(1-40), naturally occurring all-[L] isomer (P05067 672-711 limits assumed): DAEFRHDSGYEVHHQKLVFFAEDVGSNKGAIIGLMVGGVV

Binder	order of potency as inhibitor of Aβ(1-40) fibril formation, thioflavin T fluorescence, peptide tested at 20µM (1 = strongest)	order of potency as inhibitor of Aβ(1-40) fibril formation, thioflavin T fluorescence, peptide tested at 80µM (1 = strongest)
[dK][dL][dV][dF] [all-[D] Lys-Leu-Val-Phe]	6 rank	9 rank
[dK][dL][dV][dF][dF][dA] [all-[D] Lys-Leu-Val-Phe-Phe-Ala]	3 rank	1 rank
[dK][dF][dV][dF][dF][dA] [all-[D] Lys-Phe-Val-Phe-Phe-Ala]	4 rank	1 rank
[dK][dK][dL][dV][dF][dF][dA] [all-[D] Lys-Lys-Leu-Val-Phe-Phe-Ala]	2 rank	1 rank
KLVFFA [all-[L] Lys-Leu-Val-Phe-Phe-Ala]	8 rank	8 rank
KKLVFFA [all-[L] Lys-Lys-Leu-Val-Phe-Phe-Ala]	10 rank	7 rank
AFFVLK (not fully specified) [all-[L] Ala-Phe-Phe-Val-Leu-Lys]	11 rank	11 rank
[dK][dA][dV][dF][dF][dA] [all-[D] Lys-Ala-Val-Phe-Phe-Ala]	7 rank	6 rank
[dK][dL][dV][dF][dF] [all-[D] Lys-Leu-Val-Phe-Phe]	9 rank	10 rank
[dA][dF][dF][dV][dL][dK] [all-[D] Ala-Phe-Phe-Val-Leu-Lys (retro-isomer)]	5 rank	1 rank
[dK][dI][dV][dF][dF][dA] [all-[D] Lys-Ile-Val-Phe-Phe-Ala]	1 rank	5 rank
